From publication PMC9223271 (Nature Communications, 2022) come the findings set out here.

The assay concerns the target T1, SARS-CoV-2 RBD protein (recombinant, WT) (SARS-CoV-2 wild type (Wuhan-Hu-1 …, UniProt P0DTC2)).
T1 construct: also called WT RBD
The assay can be described thus: SPR. The note with it: both partners purified.

B1: ZCB11 (human IgG1 monoclonal antibody) (antibody, V domains shown)
VH: EVQLVQSGPEVKKPGTSVKVACKASGFTFITPVSMQWVRQARGQRLEWLGWIVLASGNTDYAQKFQERVTIIRDMSTSTAYMELSRLRTEDTAVYYCAAPSCSRTICSDGFDIWGQGTMVTVSS
VL: EIVLTQSPGTLSLSPGERATLSCRASQSVSSSYLAWFQQKPGQAPRLLIFAASSRAIGIPARFSGSGSGTDFTLTISRLEPEDFAVYYCQQYSSSPWTFGQGTKVEIK
notes: also called bNAb ZCB11
What is called Kd is the free concentration of one partner at which half of the binding sites on the other are occupied at equilibrium, for simple one-to-one binding. Take B1: the Kd was found to be 0.0575 nM.

B2: S2E12 (antibody, V domains shown)
VH: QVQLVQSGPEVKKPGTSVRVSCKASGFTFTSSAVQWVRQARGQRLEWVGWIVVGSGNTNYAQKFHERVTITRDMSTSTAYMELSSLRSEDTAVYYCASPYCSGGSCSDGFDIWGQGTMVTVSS
VL: DIVLTQTPGTLSLSPGERATLSCRASQSVSSSYLAWYQQKPGQAPRLLIYGASSRATGIPDRFSGSGSGTDFTLTISRLEPEDFAVYYCQQYVGLTGWTFGQGTKVEIK
notes: source: generated by the authors
Consider B2, for which the binding result was “binds”.
